As usually defined, the Kd is the equilibrium constant for the complex coming apart. A low value points to a tighter complex.

Test [1] addresses truncated hASIC1a (amino acids 13-464) (human) (UniProt P78348). Kind of test: Octet, scFv format, ΔhASIC1a nanodiscs.
Test [2] shares this target. Kind of test: Octet, scFv format at 500 nM, ΔhASIC1a nanodiscs. (In general: In BLI a coated tip is dipped into the sample, and binding shifts an interference pattern.)
A further test addresses T1, hASIC1a-eYFP (human, UniProt P78348 1-528).
T1 construct: whole, on cells; On CHO-K1 cells, stably (6H7) or transiently transfected; also called full-length hASIC1a (1-528 amino acids) fused with eYFP; CHO-K1/hASIC1a cells; not shown: C-terminal eYFP fusion
T1 sequence (looked up): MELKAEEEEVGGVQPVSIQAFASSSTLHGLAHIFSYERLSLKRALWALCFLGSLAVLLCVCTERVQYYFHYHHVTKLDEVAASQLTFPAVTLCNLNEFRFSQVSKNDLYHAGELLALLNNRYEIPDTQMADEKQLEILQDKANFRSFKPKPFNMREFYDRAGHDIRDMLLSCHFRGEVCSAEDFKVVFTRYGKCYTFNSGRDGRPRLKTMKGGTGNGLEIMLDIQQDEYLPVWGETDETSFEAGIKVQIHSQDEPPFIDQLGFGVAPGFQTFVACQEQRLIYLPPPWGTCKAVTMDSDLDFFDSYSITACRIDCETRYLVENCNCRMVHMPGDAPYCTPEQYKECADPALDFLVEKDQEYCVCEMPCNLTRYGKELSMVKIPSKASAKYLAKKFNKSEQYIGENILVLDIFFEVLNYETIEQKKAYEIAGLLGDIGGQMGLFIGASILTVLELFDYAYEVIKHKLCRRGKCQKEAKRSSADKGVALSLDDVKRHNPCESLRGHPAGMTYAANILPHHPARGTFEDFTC
Kind of test: immunocytochemistry, confocal microscopy, CHO-K1 cells expressing hASIC1a-eYFP.

The next test concerns the target T2, ΔhASIC1a-nanodiscs (Homo sapiens, UniProt P78348).
T2 construct: A truncated ASIC1a (amino acids 13-464; ΔhASIC1a) was overexpressed and purified; made in house; host or cells: HEK293F (BacMam baculovirus)
The experiment in a line: Binding affinities of scFv antibodies to ΔhASIC1a-nanodiscs, Octet system. The conditions noted are these: scFv format; for Response: Conc. 500 nM; for Response / Kd: Octet system; for affinities for ΔhASIC1a nanodiscs, comparison in words: among ASC01-ASC06. The source says: Nanodisc Assembly of hASIC1a Channel. To mimic the lipid bilayer environment of cellular membranes, the purified ΔhASIC1a protein was incorporated into a lipid nanodisc by mixing the ΔhASIC1a protein with the membrane scaffold protein (MSP). and 1,2-dimyristoyl-sn-glycero-3-phosphocholine (DMPC) at a molar ratio of 3:2:65. The associated detergents were removed by gentle agitation with the Bio-Beads SM2 [Bio-Beads:DDM=10:1 (wt/wt); Bio-Rad]overnight. The ΔhASIC1a-embedded nanodiscs were separated from the unassembled nanodisc using the Flag peptide-specific magnetic beads. D'Antona et al., Biochemistry 53:127-134 (2014). The desired ΔhASIC1a nanodisc assembly was further purified and collected using a Superose 6 column (GE Healthcare) in a buffer containing 20 mM Tris, pH 7.5, and 150 mM NaCl. The empty nanodiscs were packaged without the addition of ΔhASIC1a. The composition of the assembled ΔhASIC1a nanodiscs was analyzed by SDS-PAGE, EM, and dynamic light scattering (FIGS. 9A-C, 12A, 12B)
The binding ability of ASC01-ASC06 antibodies in scFv format to ΔhASIC1a-nanodiscs, in comparison to the empty nanodiscs, was evaluated using ELISA. […] Affinities of the antibodies were then measured.

For test [3], the target named is T3, hASIC1a-eYFP on CHO-K1 cells (Homo sapiens, UniProt P78348).
T3 construct: overexpress the full-length hASIC1a (1-528 amino acids) protein fused with eYFP; expressed in transfected cells; host or cells: CHO-K1, transient
T3 sequence (P78348 1-528): T1 sequence (looked up)
Kind of test: Immunocytochemistry on CHO-K1/hASIC1a cells. The conditions noted are these: ICC, confocal; for localization to plasma membranes of cells expressing hASIC1a-eYFP: compared to ASC01 and ASC05. The test is classed as cell-based. As for the experimental part: Cell Membrane Colocalization Studies Using Immunocytochemistry (ICC). Cells (CHO-K1) were seeded onto the poly-D-lysine-coated glass bottom 24-well plates at a concentration of 2×10^5 cells per mL. After 12 h of cultivation, the CHO-K1 cells were transfected with ASIC plasmids by Lipofectin 3000 reagent. Twenty-four hours after transfection, the cells were fixed in 4% paraformaldehyde and incubated for 30 min in a blocking solution (5% goat serum in PBS). The resulting cells were incubated with […] ASC06-IgG1 at 4° C. overnight followed by three PBS washes for 5 min each and incubation with the Alexa555-conjugated goat anti-human secondary antibody (Life Technology). After three additional PBS washes for 5 min each, the nuclei of the cells were stained with DAPI (#10236276001; Roche). The ICC analysis was performed on a laser scanning confocal microscopy (ZEISS LSM710) with a 63×N.A. 1.4 objective at 25° C. Images were collected on a 1,024×1,024-pixel EM-CCD camera. Data acquisition and analyses were performed with the ZEN 2012 professional software.
To understand whether ASC01-ASC06 specifically bind to the ASIC1a protein expressed on cell surface, the binding of the antibodies to CHO-K1/hASIC1a cells was evaluated using immunocytochemistry. The CHO-K1/hASIC1a cells overexpress the full-length hASIC1a (1-528 amino acids) protein fused with eYFP. […] It is likely that ASC01-ASC05 recognize specific ASIC1a confirmations or subpopulations.
The ASC06 antibody was converted into a full length IgG1 form (ASC06-IgG1) for further study. […] The binding of ASC06-IgG1 to CHO-K1/hASIC1a cells was evaluated using immunocytochemistry, in comparison with the ASC06 (scFv format) antibody.

T2 sequence (P02647 68-267 partner limits assumed, one chain of several): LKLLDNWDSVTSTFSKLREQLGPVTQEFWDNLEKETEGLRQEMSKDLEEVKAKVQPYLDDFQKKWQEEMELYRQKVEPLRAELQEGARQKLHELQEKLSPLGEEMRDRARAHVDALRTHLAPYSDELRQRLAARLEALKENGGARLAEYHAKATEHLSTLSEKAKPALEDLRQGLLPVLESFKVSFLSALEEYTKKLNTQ

B1: ASC01 (scFv, V domains shown)
VH: QVQLVETGPRLVKPSQTLSLTCTVSGGSINSGGYYWGWIRQHSGKGLEWIGYIYPRGSSYYNPSLRSRVTISADTSRNNFSLKLTSVTAADTAVYYCARVGYTGAFDIWGQGTLVTVSS
VL: QAVLTQPSSVSAAPGQKVTISCSGGNSNIGNNYVSWYQQLPGTAPKLLIYDNNKRPSGIPDRFSGSKSGTAATLGITGLQTGDEADYYCGTWDSSLSAGVFGEGTQLTVLG
notes: also called ASC01 scFv; ASC01 (scFv format)
Molecule B1 came in with an equilibrium dissociation constant (Kd) in test [1] of 45.1 nM. Further, in test [2], the Response was 0.431. In addition, in the test with hASIC1a-eYFP, the binding result is “binds”.

B2: ASC01: anti-ASIC1a scFv antibody, VH SEQ ID NO: 2 and VL SEQ ID NO: 7 (antibody, V domains shown)
VH: B1 VH
VL: B1 VL
modifications: scFv linker; Amino acid sequence of ASC01 VH; Amino acid sequence of ASC01 VL
In the test with ΔhASIC1a-nanodiscs, B2 gave a Response of 0.431 and a dissociation constant (Kd) of 45.1 nM.

B3: ASC05: anti-ASIC1a scFv antibody, VH SEQ ID NO: 42 and VL SEQ ID NO: 47 (antibody, V domains shown)
VH: QVQLVESGAEVKKPGASVRVSCKASGYSFTNYYMHWVRQAPGQGLEWMGIISPSGRSTSFAQKFQGRVTMTRDTSTSTVYMHLSSLRSDDTAVYYCARGAWSTDAFDIWGQGTTVTVSS
VL: QSALTQPASVSGSPGQSITISCTGTSSDVGSYNLVSWYQQHPGKAPKLMIYEGSKRPSGVSNRFSGSKSGNTASLTISGLQAEDEAEYHCSSFTGKGYVFGTGTKLTVLGGLG
modifications: scFv linker; Amino acid sequence of ASC05 VH; Amino acid sequence of ASC05 VL
In the test with ΔhASIC1a-nanodiscs, B3 had a Response of 0.5016 and a dissociation constant Kd of 137 nM.

B4: ASC06 (scFv, V domains shown)
VH: QVQLQQSGGGLVQPGGSLRLSCAASGFTFSSYAMSWVRQAPGKGLEWVSAISGSGGSTYYADSVKGRFTISRDNSKNTLYLQMNSLRAEDTAVYYCAKDSFYGYSKGDWGQGTLVTVSS
VL: QSALTQPASVSGSPGQSITISCTGTSSDVGAYNYVSWYQQQPGKAPKLMIYGVSNRPSGVSNRFSGSKSGNAASLTISGLQAEDEADYYCSSYTSSSTYVFGTGTKLTVLG
Consider B4, for which the Kd in test [1] amounted to 21.7 nM. In test [2], this molecule registered a Response of 0.571.

B5: ASC06: anti-ASIC1a scFv antibody, VH SEQ ID NO: 52 and VL SEQ ID NO: 57 (antibody, V domains shown)
VH: B4 VH
VL: B4 VL
modifications: scFv linker; Amino acid sequence of ASC06 VH; Amino acid sequence of ASC06 VL
B5: in the test with ΔhASIC1a-nanodiscs, the Response was 0.5712; binding was characterised by a dissociation constant (Kd) of 21.7 nM; the “affinities for ΔhASIC1a nanodiscs, comparison in words” value is “strongest affinities”. In addition, in test [3], the “membrane co-localization with hASIC1a” value was “more co-localization with hASIC1a-eYFP” and the “localization to plasma membranes of cells expressing hASIC1a-eYFP” value (shortened to “localization to plasma membranes”) is on record as “localized more to the plasma membranes”.

B6: ASC03: anti-ASIC1a scFv antibody, VH SEQ ID NO: 22 and VL SEQ ID NO: 27 (antibody, V domains shown)
VH: QVQLVESGAEVKKPGSSVKVSCKASGGNFRKYSISWVRQAPGQGLEWMGWISAYNGNTNYAQKLQGRVTMTTDTSTSTAYMELRSLRSDDTAVYYCARDFDPYYDAFDIWGQGTTVTVSS
VL: QSALTQPASVSGSPGQSITISCTGTSSDVGAYNYVSWYQQHPGKAPKLMIYDVSNRLSGVSNRFSGSKSGNRASLTISGLQAEDEADYYCSSYRSGNSLAFGGGTKLTVLG
modifications: scFv linker; Amino acid sequence of ASC03 VH; Amino acid sequence of ASC03 VL
Consider B6, for which, in the test with ΔhASIC1a-nanodiscs, the Response is listed as 0.2693 and the dissociation constant Kd was found to be 259 nM. Further, the “localization to plasma membranes” value in test [3] is recorded as “localized more to the plasma membranes”.

B7: ASC02: anti-ASIC1a scFv antibody, VH SEQ ID NO: 12 and VL SEQ ID NO: 17 (antibody, V domains shown)
VH: QVQLVQSGAEVKKPGASMKVSCTTSGYTVTGYYIHWLRQAPGQGFEWMGWINPNLGVTNYAQKFQGRVSMTRDPSIKTAYLELSGLRSDDTAMYYCARASTGGIFYDYWGQGTLVTVSS
VL: NFMLTQPHSMSESPGKTVTISCTRSSGNIASNYVQWYQQRPGSSPTTVIYDDNQRPSGVPDRFSGSIDSISNSASLTISGLKTEDEADYYCQSYDSSSVIFGGGTKLTVLG
modifications: scFv linker; Amino acid sequence of ASC02 VH; Amino acid sequence of ASC02 VL
For the molecule B7, in the test with ΔhASIC1a-nanodiscs, the Response is recorded as 0.2888 and the Kd was 262 nM. The “localization to plasma membranes” value in test [3] is listed as “localized more to the plasma membranes”.

B8: ASC04: anti-ASIC1a scFv antibody, VH SEQ ID NO: 32 and VL SEQ ID NO: 37 (antibody, V domains shown)
VH: QVQLVQSGAEVKKPGSSVKVSCKASGGTFSTYAINWVRQAPGQGLEWMGWMNPNSGNTGYAQKFQGRVTMTRNTSISTAYMELSSLRSEDTAVYYCARYSYGMDVWGQGTTVTVSS
VL: QAVLTQPSSLSASPGASVSLTCTLRSGINVGAYRIYWYQQKPGSPPQFLLRYKSDSDKQQGSGVPSRFSGSRDASANAGILLISGLRSEDEADYYCAIWHSSAWVFGGGTKLTVLG
modifications: scFv linker; Amino acid sequence of ASC04 VH; Amino acid sequence of ASC04 VL
On to B8, for which, in the test with ΔhASIC1a-nanodiscs, the Response amounted to 0.995; the dissociation constant Kd was determined as 20.8 nM; the “affinities for ΔhASIC1a nanodiscs, comparison in words” value is reported as “strongest affinities”. The “localization to plasma membranes” value in test [3] is listed as “localized more to the plasma membranes”.

The record behind these values is patent US12692310B2, “ASIC1 channel antagonist antibody” (ShanghaiTech University, priority 2019, dated 2026).
